The target of experiment [1] is T1, monkey TIM-3 on CHOK1 stable cell line (CHOK1-cTIM-3) (monkey).
T1 chain: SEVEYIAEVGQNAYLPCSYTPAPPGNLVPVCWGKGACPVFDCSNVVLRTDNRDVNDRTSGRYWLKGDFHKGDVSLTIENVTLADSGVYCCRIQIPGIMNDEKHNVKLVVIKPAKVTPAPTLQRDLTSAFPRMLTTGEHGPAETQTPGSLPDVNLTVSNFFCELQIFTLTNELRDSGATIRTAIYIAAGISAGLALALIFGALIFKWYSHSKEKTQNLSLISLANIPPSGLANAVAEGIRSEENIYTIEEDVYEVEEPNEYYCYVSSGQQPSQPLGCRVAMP
Kind of experiment: FACS, CHOK1-cTIM-3 cells, 0.013 nM antibody. In general terms: A flow cytometer gives signals particle by particle.

Experiment [2] deals with T2, human TIM-3 extracellular domain protein with hFc tag (hTIM-3-hFc) (human, UniProt Q8TDQ0 22-200).
T2 construct: not shown: human IgG Fc fragment (hFc) of the pCpC vector
T2 sequence: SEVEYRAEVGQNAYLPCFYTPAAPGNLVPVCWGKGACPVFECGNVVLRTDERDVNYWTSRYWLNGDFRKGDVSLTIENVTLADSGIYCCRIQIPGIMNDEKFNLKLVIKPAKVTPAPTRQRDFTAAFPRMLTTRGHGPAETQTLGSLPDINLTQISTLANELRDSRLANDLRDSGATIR
Kind of experiment: ELISA, coated human TIM-3 ECD protein, 0.6667 nM antibody.

The target in experiment [3] is T2, human TIM-3 extracellular domain …. As to the kind of experiment: ELISA, coated human TIM-3 ECD protein, 66.667 nM antibody. Background: An ELISA detects its analyte on a solid surface through an enzyme-linked reagent.
Experiment [4] has as its target T3, murine TIM-3 extracellular domain protein with hFc tag (mTIM-3-hFc) (mouse, UniProt Q8VIM0 29-191).
T3 construct: also called mouse TIM-3 extracellular domain protein; not shown: human IgG Fc fragment (hFc) of the pCpC vector
T3 chain: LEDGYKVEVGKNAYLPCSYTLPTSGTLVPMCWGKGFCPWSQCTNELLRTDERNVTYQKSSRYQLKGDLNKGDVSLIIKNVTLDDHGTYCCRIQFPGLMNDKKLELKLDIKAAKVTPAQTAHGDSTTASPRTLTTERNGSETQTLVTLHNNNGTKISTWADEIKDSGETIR
As to the kind of experiment: ELISA, coated mouse TIM-3 ECD protein, 0.0001 nM antibody.

In experiment [5] the target is T3, murine TIM-3 extracellular domain …. Kind of experiment: ELISA, coated mouse TIM-3 ECD protein, 66.667 nM antibody.
The target in experiment [6] is T4, monkey TIM-3 extracellular domain protein with hFc tag (cTIM-3-hFc) (monkey).
T4 construct: not shown: human IgG Fc fragment (hFc) of the pCpC vector
T4 chain: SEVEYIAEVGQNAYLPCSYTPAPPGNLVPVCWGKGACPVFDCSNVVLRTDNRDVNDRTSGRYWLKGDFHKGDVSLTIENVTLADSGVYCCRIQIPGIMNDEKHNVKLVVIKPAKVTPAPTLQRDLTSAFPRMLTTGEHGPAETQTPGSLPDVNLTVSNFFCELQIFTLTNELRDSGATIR
As to the kind of experiment: ELISA, coated monkey TIM-3 ECD protein, 0.6667 nM antibody.

Five molecules from patent publication US20220033501A1 (SHANGHAI PHARMAEXPLORER, published 2022) can be followed below.

B1: 215A8F2 fully human TIM-3 antibody (human IgG4, kappa) (antibody, V domains shown)
VH: QVQLQQWGAGLLKPSETLSLTCTVYGGSFSGYYWNWIRQPPGKGLEWLGEINHSGSTNYNPSLKRRVTISVDTSKNQFSLKLSSVTAADTAVYYCARVYYYGPFDFWGQGTLVTVSS
VL: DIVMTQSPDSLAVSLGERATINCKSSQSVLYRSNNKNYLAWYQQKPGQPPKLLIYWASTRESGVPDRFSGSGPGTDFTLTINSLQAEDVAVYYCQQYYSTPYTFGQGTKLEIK
For the molecule B1, the Mean fluorescence intensity in experiment [1] stood at 11.5. For the same molecule, the OD450 in experiment [2] worked out at 2.88; in experiment [3] it was 3.08; in experiment [4] it was 0.21; in experiment [5], 1.08; in experiment [6], 3.05.

B2: 18D2H2 fully human TIM-3 antibody (human IgG4, kappa) (antibody, V domains shown)
VH: EVQLVESGGDLVQPGGSLRLSCAASGFTFSTYWMTWVRQAPGRGLEWVANIKQDGSAKYYVDSVKGRFTLSRDDAKNSLYLQMNSLRAEDTAVYYCARGSNWFDYWGQGTLVTVSS
VL: ETVMTQSPATLSVSPGERATLSCRANQNVYSNLAWYQQKPGQAPRLLIYDASTRATGFPARFSGSGSGTEFTLTISSLQSEDFAVYYCQQYNNWPLTFGGGTKVEIK
In the case of B2, in experiment [1], the Mean fluorescence intensity is 14.8. In addition, the OD450 in experiment [2] came to 2.58; in experiment [3], 2.78; in experiment [4], 0.21; in experiment [5], 0.81; in experiment [6] it was 3.16.

B3: 34B6D8 fully human TIM-3 antibody (human IgG4, kappa) (antibody, V domains shown)
VH: EVQLVESGGGLVQPGGSLRLSCAASGFTFSTYWMTWVRQAPGKRLEWVANIKQGGGDKYYVDSVKGRFTISTDNAKNSLYLQMNSLRAEDTAVYYCARGSNWFDPWGQGTLVTVSS
VL: EIVMTQSPATLSMSPGERATLSCRASQSVYDNLAWYQQKPGQAPRLLIYGASTRATGIPARFSGSGSGTEFTLTISSLQSEDFALYYCQQYTHWPITFGQGTRLEIK
The molecule B3 returned a Mean fluorescence intensity in experiment [1] of 12.7. For the same molecule, the OD450 is 3.11 in experiment [2]; 3.1 in experiment [3]; 0.23 in experiment [4]; 1.38 in experiment [5]; 3.37 in experiment [6].

B4: 39E5H1 fully human TIM-3 antibody (human IgG4, kappa) (antibody, V domains shown)
VH: EVQLVESGGGLVQPGGSLRLSCAASGFTFSSYWMSWVRQAPGKGLEWVANIKRGGSERYYVDSVKGRFTISGDNAKNSVYLQMNSLRAEDTAVYYCARGSNWFDPWGQGTLVTVSS
VL: ETVMTQSPAILSVSPGERATLSCRASQSVYSNLAWYQQKLGQAPRLLIYDASTRATGIPARFSGSGSGTEFTLTISSLQSEDFAVYYCQQYNNWPITFGQGTRLEIK
Consider B4, for which the Mean fluorescence intensity in experiment [1] turned out to be 14.8. In addition, the OD450 in experiment [2] stood at 3.01; in experiment [3], 3.01; in experiment [4], 0.23; in experiment [5], 1.28; in experiment [6] it was 3.23.

B5: 7A4F10 fully human TIM-3 antibody (human IgG4, kappa) (antibody, V domains shown)
VH: EVQLLESGGGLVQPGGSLRLSCAASGFTFRTHLISWVRQAPGKGLEWVAAITGSGGSTYYADSVKGRFIISRDNSKNTLFLQMNSLRAEDTAVYYCAKDGGSGSYDDFWGQGTLVTVSS
VL: ETVLTQSPVTLSLSPGERATLSCRASQSVGSYLAWYQQKPGQAPRLLIYDASNRATGIPARFSGSGSGTDFTLTISSLEPEDFAVYYCQQRSNWPPTFGQGTKVEIK
Take B5: in experiment [1], the Mean fluorescence intensity amounted to 7.1. For the same molecule, the OD450 in experiment [2] is 2.75; in experiment [3] it was 3.02; in experiment [4], 0.22; in experiment [5] it was 0.99; in experiment [6], 2.46.
